What was measured:
[1] = biological target: recombinant His-tagged cynomolgus PD-1 (Acro Biosystems) (cynomolgus) (UniProt B0LAJ3); experiment: SPR Carterra LSA
[2] = biological target: recombinant His-tagged human PD-1 (Acro Biosystems) (human) (UniProt Q15116); experiment: SPR Carterra LSA
Chain of recombinant His-tagged human PD-1 (Acro Biosystems) (human) (Q15116 25-167 limits assumed): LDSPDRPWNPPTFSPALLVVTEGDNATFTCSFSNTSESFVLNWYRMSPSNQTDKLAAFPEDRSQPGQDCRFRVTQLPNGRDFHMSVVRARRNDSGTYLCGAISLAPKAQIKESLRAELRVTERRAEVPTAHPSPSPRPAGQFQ

Chain of recombinant His-tagged cynomolgus PD-1 (Acro Biosystems) (cynomolgus) (B0LAJ3 entry or part of it limits assumed): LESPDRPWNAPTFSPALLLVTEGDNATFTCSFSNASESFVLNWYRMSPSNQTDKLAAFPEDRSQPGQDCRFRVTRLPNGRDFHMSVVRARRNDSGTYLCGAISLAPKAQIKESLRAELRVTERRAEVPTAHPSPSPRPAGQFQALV

Substance	Kd [1] [nM]	koff [1] [s⁻¹]	kon [1] [M⁻¹ s⁻¹]	Kd [2] [nM]	koff [2] [s⁻¹]	kon [2] [M⁻¹ s⁻¹]
Anti-PD-1 clone MIH4 mIgG1 (antibody)	891	0.12	130000	10	0.0014	130000
Anti-hPD-1 clone EH12.2H7-mIgG1 (antibody)	85	0.0073	86000	19	0.0022	110000
Anti-hPD-1 clone J105-mIgG1 (antibody)	1300	0.066	50000	86	0.0053	62000
KEYTRUDA ® (pembrolizumab) (antibody)	0.575					
OPDIVO ® (nivolumab) (antibody)	6.4					
